Test results from article PMC7028823, “EF1025, a Hypothetical Protein From Enterococcus faecalis, Interacts With DivIVA and Affects Cell Length and Cell Shape” (Frontiers in Microbiology, 2020).

Assays:
[1] = molecular target: DivIVAEf (bacterial two-hybrid fusion) (Enterococcus faecalis JH2-2) (UniProt Q93C53); test: two-hybrid; bacterial two-hybrid (Di Lallo) in E. coli R721, vectors pcI434-L and pcIp22-L, 0.1 mM IPTG; residual β-galactosidase activity, less than 50% indicates a positive interaction
[2] = molecular target: the molecule itself; test: SEC-MALS; 1 mg purified 6×His-EF1025 on Superdex 200 in 50 mM Tris base, 400 mM NaCl, pH 7.4; also with 1 mM dithiothreitol

Molecule: EF1025-c (AA80-209 of EF1025), bacterial two-hybrid fusion (domain or fragment)
- residual β-galactosidase activity [1]: 14%

B1: 6×His-EF1025 (natural protein, Enterococcus faecalis JH2-2, UniProt Q836T2 1-209, looked up)
chain: MKLSKRQEQIIAVVKEHQPVSGERISDILAVSRATLRSDLSFLTLSGILKASPKVGYTYESDNMEAFFFFDVFQTKVQEIMSPPLMVAQDTSIRDAITNLFMYDVGSLYVMDEAKELLGVLSRKDLLRASLNTNIDGTPVAVCMTRVPHVKTCTPEFTILEAADTLQKYEVDSLPVVEKENPKKVIGKITKTKILTYITQQAKEAAQNR
notes: hypothetical protein EF1025 of Enterococcus faecalis (209 AA), gene amplified with primers EF1025F-F/R and cloned into pET30a(+); Vector pET30a(+); also called pETEF1025; source: E. coli C41 (DE3), in lysate supernatant (pull-down); copies: 10
- stoichiometry N [2]: 10
